Results taken from paper PMC4514675, “Novel Apo E-Derived ABCA1 Agonist Peptide (CS-6253) Promotes Reverse Cholesterol Transport and Induces Formation of preβ-1 HDL In Vitro” (PLoS ONE, 2015).

Assays:
[1] = tested on: BHK-ABCA1 plasma membrane microdomains; assay: Cholesterol and phospholipid desorption from raft and non-raft domains of BHK-ABCA1 cells; type: cell-based, hamster; conditions: 45 min
Protocol: Lipid labeling was performed as described previously with minor modifications. Briefly, BHK-cells were labeled with either 5 μCi/ml ^3[H] choline (Perkin-Elmer) for 48 h or 3 μCi/ml ^3[H] cholesterol (Perkin-Elmer) for 24 h, and then stimulated as described above. […] For each fraction, lipids were extracted by Folch and ^3[H]choline-labeled PtdCho, and SM were separated by TLC in the solvent system chloroform-methanol-water (65:35:4; v/v/v), and counted.
Supplementary file pone.0131997.s008.tif: S7 Fig CS-6253 desorbs phospholipids from raft and nonraft domains. […] After lipid extraction, ^3[H]cholesterol in each fraction was assessed for radioactivity. Radioactivity appearing in fractions corresponding to raft (1–5) and nonraft (6–10) material was pooled, and desorption of ^3[H]cholesterol and ^3[H]choline, from raft versus nonraft in the presence of apo A-I or CS-6253 was expressed as a percentage of control (100%, in the absence of acceptor) (S4 to S7 inset). […]
Sucrose density gradient fractionation was performed by ultracentrifugation (1,2). […] Ten fractions of 1ml were collected from top to bottom and analyzed for radioactivity, and lipid content ^3[H]-FC and ^3[H]-choline. […]

ABCA1 = ABCA1 (Homo sapiens, UniProt O95477); assay: Chemical cross-linking of ABCA1, dimer:monomer ratio (SDS-PAGE); type: cell-based; parameters: expressed in transfected cells; host or cells: BHK cells, stably transfected, induced with 10 nM mifepristone
Protocol: Supplementary file pone.0131997.s004.tif: S3 Fig Chemical cross-linking of ABCA1 in intact BHK cells expressing ABCA1. BHK cells in 100-mm diameter dishes were stimulated with 10 nM mifepristone for 18–20 h. BHK cells expressing ABCA1 (100 μg of total protein) in the presence of apo A-I or CS-6253 at same molarity (0.96 μM) were cross-linked or not with 500 μM DSP. Cells were then lysed at 4°C with lysis buffer containing 0.5% n-dodecylmaltoside in the presence of a protease inhibitor mixture followed by low speed centrifugation to remove cell debris. The supernatants were treated or not with 50 mM DTT for 30 min at 37°C and then separated by SDS-PAGE (4–22.5%) in duplicate. After electrophoresis, ABCA1 was detected by an anti-ABCA1 antibody. GAPDH was used as loading control. (TIF) Click here for additional data file. […]

Chain of ABCA1 (O95477 whole entry): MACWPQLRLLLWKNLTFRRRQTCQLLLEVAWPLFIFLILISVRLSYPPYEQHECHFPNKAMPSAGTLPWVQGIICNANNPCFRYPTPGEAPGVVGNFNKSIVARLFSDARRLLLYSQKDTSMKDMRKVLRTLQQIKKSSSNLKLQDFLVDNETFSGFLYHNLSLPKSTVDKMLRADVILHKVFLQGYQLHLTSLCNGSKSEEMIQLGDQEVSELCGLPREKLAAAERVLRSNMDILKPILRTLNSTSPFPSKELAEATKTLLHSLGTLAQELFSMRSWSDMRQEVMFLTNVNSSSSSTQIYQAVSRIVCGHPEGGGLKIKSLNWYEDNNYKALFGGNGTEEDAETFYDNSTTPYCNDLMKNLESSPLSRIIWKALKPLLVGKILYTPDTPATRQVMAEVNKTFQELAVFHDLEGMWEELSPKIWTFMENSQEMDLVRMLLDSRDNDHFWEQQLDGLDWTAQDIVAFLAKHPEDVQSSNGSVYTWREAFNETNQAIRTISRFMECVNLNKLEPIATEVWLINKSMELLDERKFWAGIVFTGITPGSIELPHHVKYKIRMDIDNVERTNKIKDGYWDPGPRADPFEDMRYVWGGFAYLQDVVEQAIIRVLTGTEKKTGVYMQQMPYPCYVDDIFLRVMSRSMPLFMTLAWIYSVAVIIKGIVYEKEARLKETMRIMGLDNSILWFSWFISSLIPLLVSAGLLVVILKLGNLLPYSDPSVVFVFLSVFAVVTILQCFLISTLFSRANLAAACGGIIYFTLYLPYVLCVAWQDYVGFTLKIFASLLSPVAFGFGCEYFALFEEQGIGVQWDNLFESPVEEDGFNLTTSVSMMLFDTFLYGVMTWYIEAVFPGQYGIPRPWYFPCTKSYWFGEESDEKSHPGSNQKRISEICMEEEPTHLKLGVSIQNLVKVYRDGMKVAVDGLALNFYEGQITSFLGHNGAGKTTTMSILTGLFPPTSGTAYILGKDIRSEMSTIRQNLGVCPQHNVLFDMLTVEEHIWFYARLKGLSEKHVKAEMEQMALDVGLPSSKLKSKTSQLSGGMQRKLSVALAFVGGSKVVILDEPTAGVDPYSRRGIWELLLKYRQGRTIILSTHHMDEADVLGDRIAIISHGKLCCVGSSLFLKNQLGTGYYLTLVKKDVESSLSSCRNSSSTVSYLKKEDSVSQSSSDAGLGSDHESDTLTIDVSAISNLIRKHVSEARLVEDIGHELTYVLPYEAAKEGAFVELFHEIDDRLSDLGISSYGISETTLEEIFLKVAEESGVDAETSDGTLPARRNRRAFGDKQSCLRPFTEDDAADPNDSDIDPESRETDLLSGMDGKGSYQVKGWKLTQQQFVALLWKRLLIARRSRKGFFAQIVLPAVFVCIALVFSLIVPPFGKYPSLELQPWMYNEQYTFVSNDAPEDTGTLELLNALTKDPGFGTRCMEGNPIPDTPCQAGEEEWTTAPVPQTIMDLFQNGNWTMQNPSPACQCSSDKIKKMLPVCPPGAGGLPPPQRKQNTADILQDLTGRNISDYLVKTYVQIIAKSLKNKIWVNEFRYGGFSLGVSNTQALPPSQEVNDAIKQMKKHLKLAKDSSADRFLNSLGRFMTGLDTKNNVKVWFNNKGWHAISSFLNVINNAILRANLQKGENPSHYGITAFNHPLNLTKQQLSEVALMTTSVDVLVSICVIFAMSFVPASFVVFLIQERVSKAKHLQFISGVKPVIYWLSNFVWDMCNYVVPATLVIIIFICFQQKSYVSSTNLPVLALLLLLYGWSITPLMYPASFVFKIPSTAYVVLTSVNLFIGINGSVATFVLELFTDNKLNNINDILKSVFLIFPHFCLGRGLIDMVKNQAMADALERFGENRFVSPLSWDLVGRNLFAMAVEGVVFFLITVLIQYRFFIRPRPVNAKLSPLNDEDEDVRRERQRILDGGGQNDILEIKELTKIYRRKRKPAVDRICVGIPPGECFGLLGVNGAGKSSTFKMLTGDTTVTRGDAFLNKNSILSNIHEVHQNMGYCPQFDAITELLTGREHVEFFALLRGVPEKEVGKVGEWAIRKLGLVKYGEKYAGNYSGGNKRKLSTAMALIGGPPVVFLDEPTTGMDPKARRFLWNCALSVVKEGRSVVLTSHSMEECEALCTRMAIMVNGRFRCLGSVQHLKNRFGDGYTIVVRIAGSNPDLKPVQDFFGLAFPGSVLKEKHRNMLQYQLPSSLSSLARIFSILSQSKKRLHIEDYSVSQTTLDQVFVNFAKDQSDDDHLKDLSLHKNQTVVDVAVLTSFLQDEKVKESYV

apolipoprotein A-I [apo A-I]
cholesterol desorption from rafts and non-rafts [1]: 25%
ratio of ABCA1 dimer: monomer (ABCA1; 0.93 μM (appendix) / 0.96 μM (S3 Fig), DSP 500 μM, densitometry): 69.22%±0.25
effect on ABCA1 oligomerization (in words) (ABCA1; BHK-ABCA1, DSP cross-linking): causes ABCA1 dimer formation
